Measurements as given in the supplement of paper PMC5998384.

What was measured:
HeLa Kyoto [1] = assay: solubility in G1/S (NP-40 vs SDS abundance) (log2 ratio); higher = more soluble; conditions: cell cycle stage: G1/S
HeLa Kyoto [2] = assay: thermal stability score vs G1/S (z-score of summed log2 fold changes over temperatures); higher = more thermally stable than in G1/S
HeLa Kyoto [3] = assay: solubility change mitosis vs G1/S (difference of NP-40 vs SDS log2 ratios) (log2 ratio difference); higher = more soluble in mitosis
HeLa Kyoto [4] = assay: melting temperature (median over replicates), in situ; higher = more thermally stable
[5] = cell cycle stage: early G1 (4.5 h after nocodazole release)
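Wherever melting temperature (median over replicates), in situ is given: HeLa Kyoto cells synchronized by double thymidine or nocodazole block, proteins quantified by TMT10plex mass spectrometry, three independent biological replicates.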
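Wherever solubility change mitosis vs G1/S (difference of NP-40 vs SDS log2 ratios) is given: synchronized HeLa Kyoto cells (double thymidine block for G1/S, nocodazole release for mitosis), protein amounts in NP-40 versus SDS lysates quantified by mass spectrometry, three biological replicates.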
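Wherever solubility in G1/S (NP-40 vs SDS abundance) is given: HeLa Kyoto cells arrested at G1/S by double thymidine block, proteins quantified by TMT10plex mass spectrometry in mild NP-40 versus SDS extracts, three biological replicates.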
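Wherever thermal stability score vs G1/S (z-score of summed log2 fold changes over temperatures) is given: synchronized HeLa Kyoto cells, proteins quantified by TMT10plex mass spectrometry, three biological replicates, mitosis taken 0.5 h after nocodazole release, G1/S directly after double thymidine block.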

Which “solubility in G1/S (log2)” value (HeLa Kyoto [1]) does the source give for “MSLKPRVVDFDETWNKLLTTIKAVVMLEYVERATWNDRFSDIYALCVAYPEPLGERLYTETKIFLENHVRHLHKRVLESEEQVLVMYHRYWEEYSKGADYMDCLYRYLNTQFIKKNKLTEADLQYGYGGVDMNEPLMEIGELALDMWRKLMVEPLQAILIRMLLREIKNDRGGEDPNQKVIHGVINSFVHVEQYKKKFPLKFYQEIFESPFLTETGEYYKQEASNLLQESNCSQYMEKVLGRLKDEEIRCRKYLHPSSYTKVIHECQQRMVADHLQFLHAECHNIIRQEKKNDMANMYVLLRAVSTGLPHMIQELQNHIHDEGLRATSNLTQENMPTLFVESVLEVHGKFVQLINTVLNGDQHFMSALDKALTSVVNYREPKSVCKAPELLAKYCDNLLKKSAKGMTENEVEDRLTSFITVFKYIDDKDVFQKFYARMLAKRLIHGLSMSMDSEEAMINKLKQACGYEFTSKLHRMYTDMSVSADLNNKFNNFIKNQDTVIDLGISFQIYVLQAGAWPLTQAPSSTFAIPQELEKSVQMFELFYSQHFSGRKLTWLHYLCTGEVKMNYLGKPYVAMVTTYQMAVLLAFNNSETVSYKELQDSTQMNEKELTKTIKSLLDVKMINHDSEKEDIDAESSFSLNMNFSSKRTKFKITTSMQKDTPQEMEQTRSAVDEDRKMYLQAAIVRIMKARKVLRHNALIQEVISQSRARFNPSISMIKKCIEVLIDKQYIERSQASADEYSYVA [CUL2]” here?
Its value is -0.219.

What about the thermal stability score (HeLa Kyoto [2]; [5]) of the same sequence?
Its thermal stability score is -0.0958.

And the thermal stability score (HeLa Kyoto [2]; cell cycle stage: mitosis)?
The thermal stability score was -0.6.

And the “solubility change mitosis (log2)” value (HeLa Kyoto [3])?
The value was -0.148.

What about the melting temperature (HeLa Kyoto [4]; cell cycle stage: G1/S) of the same sequence?
The melting temperature was 54.1 °C.

And the melting temperature (HeLa Kyoto [4]; cell cycle stage: mitosis)?
Its melting temperature is 53.6 °C.

For “MSLLRSLRVFLVARTGSYPAGSLLRQSPQPRHTFYAGPRLSASASSKELLMKLRRKTGYSFVNCKKALETCGGDLKQAEIWLHKEAQKEGWSKAAKLQGRKTKEGLIGLLQEGNTTVLVEVNCETDFVSRNLKFQLLVQQVALGTMMHCQTLKDQPSAYSKGFLNSSELSGLPAGPDREGSLKDQLALAIGKLGENMILKRAAWVKVPSGFYVGSYVHGAMQSPSLHKLVLGKYGALVICETSEQKTNLEDVGRRLGQHVVGMAPLSVGSLDDEPGGEAETKMLSQPYLLDPSITLGQYVQPQGVSVVDFVRFECGEGEEAAETE [TSFM]”, which “solubility in G1/S (log2)” value (HeLa Kyoto [1]) is on record?
Its value is 0.283.

And the thermal stability score (HeLa Kyoto [2]; [5])?
Its thermal stability score is -0.0634.

What about the thermal stability score (HeLa Kyoto [2]; cell cycle stage: mitosis) of the same sequence?
Its thermal stability score is 3.2.

What about the “solubility change mitosis (log2)” value (HeLa Kyoto [3]) of the same sequence?
The value was -0.0285.

And the melting temperature (HeLa Kyoto [4]; cell cycle stage: G1/S)?
The melting temperature was 47.6 °C.

And the melting temperature (HeLa Kyoto [4]; cell cycle stage: mitosis)?
Its melting temperature is 48.9 °C.

How did the “solubility in G1/S (log2)” value (HeLa Kyoto [1]) turn out when “MSLNPPIFLKRSEENSSKFVETKQSQTTSIASEDPLQNLCLASQEVLQKAQQSGRSKCLKCGGSRMFYCYTCYVPVENVPIEQIPLVKLPLKIDIIKHPNETDGKSTAIHAKLLAPEFVNIYTYPCIPEYEEKDHEVALIFPGPQSISIKDISFHLQKRIQNNVRGKNDDPDKPSFKRKRTEEQEFCDLNDSKCKGTTLKKIIFIDSTWNQTNKIFTDERLQGLLQVELKTRKTCFWRHQKGKPDTFLSTIEAIYYFLVDYHTDILKEKYRGQYDNLLFFYSFMYQLIKNAKCSGDKETGKLTH [DTWD1]” was run?
The value was 0.19.

What about the thermal stability score (HeLa Kyoto [2]; [5]) of the same sequence?
Its thermal stability score is 1.51.

What about the thermal stability score (HeLa Kyoto [2]; cell cycle stage: mitosis) of the same sequence?
Its thermal stability score is 1.96.

What about the “solubility change mitosis (log2)” value (HeLa Kyoto [3]) of the same sequence?
Its value is -0.213.

What about the melting temperature (HeLa Kyoto [4]; cell cycle stage: G1/S) of the same sequence?
Its melting temperature is 50.9 °C.

What about the melting temperature (HeLa Kyoto [4]; cell cycle stage: mitosis) of the same sequence?
Its melting temperature is 50.6 °C.

Which results are given for “MSLRIDVDTNFPECVVDAGKVTLGTQQRQEMDPRLREKQNEIILRAVCALLNSGGGIIKAEIENKGYNYERHGVGLDVPPIFRSHLDKMQKENHFLIFVKSWNTEAGVPLATLCSNLYHRERTSTDVMDSQEALAFLKCRTQTPTNINVSNSLGPQAAQGSVQYEGNINVSAAALFDRKRLQYLEKLNLPESTHVEFVMFSTDVSHCVKDRLPKCVSAFANTEGGYVFFGVHDETCQVIGCEKEKIDLTSLRASIDGCIKKLPVHHFCTQRPEIKYVLNFLEVHDKGALRGYVCAIKVEKFCCAVFAKVPSSWQVKDNRVRQLPTREWTAWMMEADPDLSRCPEMVLQLSLSSATPRSKPVCIHKNSECLKEQQKRYFPVFSDRVVYTPESLYKELFSQHKGLRDLINTEMRPFSQGILIFSQSWAVDLGLQEKQGVICDALLISQNNTPILYTIFSKWDAGCKGYSMIVAYSLKQKLVNKGGYTGRLCITPLVCVLNSDRKAQSVYSSYLQIYPESYNFMTPQHMEALLQSLVIVLLGFKSFLSEELGSEVLNLLTNKQYELLSKNLRKTRELFVHGLPGSGKTILALRIMEKIRNVFHCEPANILYICENQPLKKLVSFSKKNICQPVTRKTFMKNNFEHIQHIIIDDAQNFRTEDGDWYGKAKFITQTARDGPGVLWIFLDYFQTYHLSCSGLPPPSDQYPREEINRVVRNAGPIANYLQQVMQEARQNPPPNLPPGSLVMLYEPKWAQGVPGNLEIIEDLNLEEILIYVANKCRFLLRNGYSPKDIAVLFTKASEVEKYKDRLLTAMRKRKLSQLHEESDLLLQIGDASDVLTDHIVLDSVCRFSGLERNIVFGINPGVAPPAGAYNLLLCLASRAKRHLYILKASV [SLFN5]”?
solubility in G1/S (log2) (HeLa Kyoto [1]): -0.0689; thermal stability score (HeLa Kyoto [2]; [5]): 1.54; thermal stability score (HeLa Kyoto [2]; cell cycle stage: mitosis): 2.13; solubility change mitosis (log2) (HeLa Kyoto [3]): -0.0585; melting temperature (HeLa Kyoto [4]; cell cycle stage: G1/S): 48.5 °C; melting temperature (HeLa Kyoto [4]; cell cycle stage: mitosis): 49.4 °C

Which results are given for “MSLRQRLAQLVGRLQDPQKVARFQRLCGVEAPPRRSADRREDEKAEAPLAGDPRLRGRQPGAPGGPQPPGSDRNQCPAKPDGGGAPNGVRNGLAAELGPASPRRAGALRRNSLTGEEGQLARVSNWPLYCLFCFGTELGNELFYILFFPFWIWNLDPLVGRRLVVIWVLVMYLGQCTKDIIRWPRPASPPVVKLEVFYNSEYSMPSTHAMSGTAIPISMVLLTYGRWQYPLIYGLILIPCWCSLVCLSRIYMGMHSILDIIAGFLYTILILAVFYPFVDLIDNFNQTHKYAPFIIIGLHLALGIFSFTLDTWSTSRGDTAEILGSGAGIACGSHVTYNMGLVLDPSLDTLPLAGPPITVTLFGKAILRILIGMVFVLIIRDVMKKITIPLACKIFNIPCDDIRKARQHMEVELPYRYITYGMVGFSITFFVPYIFFFIGIS [SGPP1]”?
solubility in G1/S (log2) (HeLa Kyoto [1]): -0.0125; thermal stability score (HeLa Kyoto [2]; [5]): 1.45; thermal stability score (HeLa Kyoto [2]; cell cycle stage: mitosis): 1.19; solubility change mitosis (log2) (HeLa Kyoto [3]): -0.122; melting temperature (HeLa Kyoto [4]; cell cycle stage: G1/S): 53.9 °C; melting temperature (HeLa Kyoto [4]; cell cycle stage: mitosis): 53.4 °C
